# Measured values taken from patent US10766960 (dated 2020).
# T1: FcgRIIa R (human, UniProt P12318)
# T1 chain: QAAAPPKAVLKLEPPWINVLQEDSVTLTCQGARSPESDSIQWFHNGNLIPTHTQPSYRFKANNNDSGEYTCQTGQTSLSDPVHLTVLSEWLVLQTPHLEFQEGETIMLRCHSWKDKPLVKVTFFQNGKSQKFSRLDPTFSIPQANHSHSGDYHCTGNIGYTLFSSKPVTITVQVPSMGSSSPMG
# T2: FcgRIIa H (human, UniProt P12318)
# T2 chain: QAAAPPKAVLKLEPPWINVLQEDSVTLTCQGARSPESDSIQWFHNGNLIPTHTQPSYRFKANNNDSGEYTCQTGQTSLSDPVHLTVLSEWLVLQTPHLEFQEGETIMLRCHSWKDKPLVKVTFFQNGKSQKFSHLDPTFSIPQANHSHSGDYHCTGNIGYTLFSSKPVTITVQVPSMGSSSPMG
# T3: FcgRIIb (human, UniProt P31994)
# T3 chain: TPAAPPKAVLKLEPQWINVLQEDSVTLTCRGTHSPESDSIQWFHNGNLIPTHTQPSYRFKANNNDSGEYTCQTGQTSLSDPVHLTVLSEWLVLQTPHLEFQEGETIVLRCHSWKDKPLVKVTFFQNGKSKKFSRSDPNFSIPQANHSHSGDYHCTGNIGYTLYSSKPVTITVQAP
# T4: FcgRIa (human, UniProt P12314)
# T4 chain: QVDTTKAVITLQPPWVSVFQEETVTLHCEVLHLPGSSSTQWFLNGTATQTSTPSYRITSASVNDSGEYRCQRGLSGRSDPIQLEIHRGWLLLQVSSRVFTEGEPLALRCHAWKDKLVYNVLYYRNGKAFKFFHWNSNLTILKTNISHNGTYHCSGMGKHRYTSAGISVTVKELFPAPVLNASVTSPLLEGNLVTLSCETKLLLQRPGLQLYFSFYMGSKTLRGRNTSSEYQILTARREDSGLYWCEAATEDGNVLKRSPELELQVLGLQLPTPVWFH
# What was measured:
# Test in all cases: SPR
# [1] = molecular target: T1, FcgRIIa R
# [2] = molecular target: FcgRIIIa V (human, UniProt P08637)
# FcgRIIIa V, sequence (P08637 17-208 F176V): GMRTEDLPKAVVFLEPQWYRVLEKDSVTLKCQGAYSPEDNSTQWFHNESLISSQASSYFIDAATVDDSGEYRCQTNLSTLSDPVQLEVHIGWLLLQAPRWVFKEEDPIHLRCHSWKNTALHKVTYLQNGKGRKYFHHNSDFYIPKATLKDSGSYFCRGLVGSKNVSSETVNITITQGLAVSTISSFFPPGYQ
# [3] = molecular target: T2, FcgRIIa H
# [4] = molecular target: T3, FcgRIIb
# [5] = molecular target: T4, FcgRIa
# [6] = molecular target: FcgRIIIa F (human, UniProt P08637)
# FcgRIIIa F, sequence (P08637 17-208): as the sequence (P08637 17-208 F176V) above, with V160F counted along it
Kd [1],Kd [2],Kd [3],Kd [4],Kd [5],Kd [6],Binder
300 nM,1.3 nM,88 nM,1900 nM,0.092 nM,4.3 nM,H240-FA030/H240-FB082/L73-k0 (antibody) chain 1: QDQLVQSGAEVKKPGASVKVSCKASGFNIKDTYIQWVRQAPGQGLEWMGRIDPLRKQTKYREKFEGRVTITADTSTNTAYMELSSLRSEDTAVYYCVRSGREFDYWGQGTLVTVSSASTKGPSVFPLAPSSKSTSGGTAALGCLVKDYFPEPVTVSWNSGALTSGVHTFPAVLQSSGLYSLSSVVTVPSSSLGTKTYTCNVNHKPSNTKVDKKVEPKSCDKTHTCPPCPAPEYYWGPSVFLFPPKPKDTLMISRTPEVTCVVVDVSDEEPKVKFNWYVDGVEVHNAKTKPREEQYNATYRVVSVLTVLHQDWLNGKEYKCKVSNKALPAPIEKTISKAKGQPREPQVYTLPPSRKEMTKNQVSLTCLVKGFYPSDIAVEWESNGQPENNYKTTPPVLDSDGSFFLYSKLTVDKSRWQQGNVFSCSVMHEALHNRYTQKSLSLSP chain 2: QDQLVQSGAEVKKPGASVKVSCKASGFNIKDTYIQWVRQAPGQGLEWMGRIDPLRKQTKYREKFEGRVTITADTSTNTAYMELSSLRSEDTAVYYCVRSGREFDYWGQGTLVTVSSASTKGPSVFPLAPSSKSTSGETAALGCLVEDYFPEPVTVSWNSGALTSGVHTFPAVLQSSGLYSLSSVVTVPSSSLGTQTYICNVNHKPSNTKVDKKVEPKSCDKTHTCPPCPAPELLGGPSVFLFPPKPKDTLMISRTPEVTCVVVDVSHEEPEVQFNWYVDGVEVHNAETKPREEQYNSTYRVVSVLTVLHQDWLNGKEYKCKVSNDALPMPIEETISKAKGQPREPQVYTLPPSREEMTKNQVSLTCLVKGFYPSDIAVEWESEGQPENNYKTTPPVLDSDGSFFLYSKLTVDKSRWQQGNVFSCSVMHEALHNHYTQESLSLSP chain 3: DIQMTQSPSSLSASVGDRVTITCRASQDIHKYIAWYQQKPGQAPRLLIQYTSTLQPGVPSRFSGSGSGTDYTFTISSLQPEDIATYYCLQYEQLRTFGGGTKVEIKRTVAAPSVFIFPPSDEQLKSGTASVVCLLNNFYPREAKVQWKVDNALQSGNSQESVTEQDSKDSTYSLSSTLTLSKADYEKHKVYACEVTHQGLSSPVTKSFNRGEC
280 nM,1.7 nM,92 nM,1300 nM,0.069 nM,4.4 nM,H240-FA021/H240-FB059/L73-k0 (antibody) chain 1: QDQLVQSGAEVKKPGASVKVSCKASGFNIKDTYIQWVRQAPGQGLEWMGRIDPLRKQTKYREKFEGRVTITADTSTNTAYMELSSLRSEDTAVYYCVRSGREFDYWGQGTLVTVSSASTKGPSVFPLAPSSKSTSGGTAALGCLVKDYFPEPVTVSWNSGALTSGVHTFPAVLQSSGLYSLSSVVTVPSSSLGTKTYTCNVNHKPSNTKVDKKVEPKSCDKTHTCPPCPAPEYYWGPSVFLFPPKPKDTLMISRTPEVTCVVVDVSDEEPEVKFNWYVDGVEVHNAKTKPREEQYNATYRVVSVLTVLHQDWLNGKEYKCKVSNKALPAPIEKTISKAKGQPREPQVYTLPPSRKEKTKNQVSLTCLVKGFYPSDIAVEWESNGQPENNYKTTPPKLDSDGSFFLYSKLTVDKSRWQQGNVFSCSVMHEALHNRYTQKSLSLSP chain 2: QDQLVQSGAEVKKPGASVKVSCKASGFNIKDTYIQWVRQAPGQGLEWMGRIDPLRKQTKYREKFEGRVTITADTSTNTAYMELSSLRSEDTAVYYCVRSGREFDYWGQGTLVTVSSASTKGPSVFPLAPSSKSTSGETAALGCLVEDYFPEPVTVSWNSGALTSGVHTFPAVLQSSGLYSLSSVVTVPSSSLGTQTYICNVNHKPSNTKVDKKVEPKSCDKTHTCPPCPAPELLGGPSVFLFPPKPKDTLMISRTPEVTCVVVDVSHEEPEVQFNWYVDGVEVHNAETKPREEQYNSTYRVVSVLTVLHQDWLNGKEYKCKVSNDALPMPIEETISKAKGQPREPQVYTLPPSREEMTKNQVSLTCLVKGFYPSDIAVEWESNGQPENNYKTTPPVLDSDGSFFLYSKLTVDKSRWQQGNVFSCSVMHEALHNHYTQESLSLSP chain 3: DIQMTQSPSSLSASVGDRVTITCRASQDIHKYIAWYQQKPGQAPRLLIQYTSTLQPGVPSRFSGSGSGTDYTFTISSLQPEDIATYYCLQYEQLRTFGGGTKVEIKRTVAAPSVFIFPPSDEQLKSGTASVVCLLNNFYPREAKVQWKVDNALQSGNSQESVTEQDSKDSTYSLSSTLTLSKADYEKHKVYACEVTHQGLSSPVTKSFNRGEC
270 nM,1.3 nM,88 nM,2500 nM,0.12 nM,4.2 nM,H240-FA030/H240-FB084/L73-k0 (antibody) chain 1: QDQLVQSGAEVKKPGASVKVSCKASGFNIKDTYIQWVRQAPGQGLEWMGRIDPLRKQTKYREKFEGRVTITADTSTNTAYMELSSLRSEDTAVYYCVRSGREFDYWGQGTLVTVSSASTKGPSVFPLAPSSKSTSGGTAALGCLVKDYFPEPVTVSWNSGALTSGVHTFPAVLQSSGLYSLSSVVTVPSSSLGTKTYTCNVNHKPSNTKVDKKVEPKSCDKTHTCPPCPAPEYYWGPSVFLFPPKPKDTLMISRTPEVTCVVVDVSDEEPKVKFNWYVDGVEVHNAKTKPREEQYNATYRVVSVLTVLHQDWLNGKEYKCKVSNKALPAPIEKTISKAKGQPREPQVYTLPPSRKEMTKNQVSLTCLVKGFYPSDIAVEWESNGQPENNYKTTPPVLDSDGSFFLYSKLTVDKSRWQQGNVFSCSVMHEALHNRYTQKSLSLSP chain 2: QDQLVQSGAEVKKPGASVKVSCKASGFNIKDTYIQWVRQAPGQGLEWMGRIDPLRKQTKYREKFEGRVTITADTSTNTAYMELSSLRSEDTAVYYCVRSGREFDYWGQGTLVTVSSASTKGPSVFPLAPSSKSTSESTAALGCLVEDYFPEPVTVSWNSGALTSGVHTFPAVLQSSGLYSLSSVVTVPSSNFGTQTYTCNVDHKPSNTKVDKTVEPKSCDKTHTCPPCPAPELLGGPSVFLFPPKPKDTLMISRTPEVTCVVVDVSHEEPEVQFNWYVDGVEVHNAETKPREEQYNSTYRVVSVLTVLHQDWLNGKEYKCKVSNDALPMPIEETISKAKGQPREPQVYTLPPSREEMTKNQVSLTCLVKGFYPSDIAVEWESEGQPENNYKTTPPVLDSDGSFFLYSKLTVDKSRWQQGNVFSCSVMHEALHNHYTQESLSLSP chain 3: DIQMTQSPSSLSASVGDRVTITCRASQDIHKYIAWYQQKPGQAPRLLIQYTSTLQPGVPSRFSGSGSGTDYTFTISSLQPEDIATYYCLQYEQLRTFGGGTKVEIKRTVAAPSVFIFPPSDEQLKSGTASVVCLLNNFYPREAKVQWKVDNALQSGNSQESVTEQDSKDSTYSLSSTLTLSKADYEKHKVYACEVTHQGLSSPVTKSFNRGEC
250 nM,1 nM,70 nM,1400 nM,0.13 nM,4.4 nM,H240-FA009/H240-FB016/L73-k0 (antibody) chain 1: QDQLVQSGAEVKKPGASVKVSCKASGFNIKDTYIQWVRQAPGQGLEWMGRIDPLRKQTKYREKFEGRVTITADTSTNTAYMELSSLRSEDTAVYYCVRSGREFDYWGQGTLVTVSSASTKGPSVFPLAPSSKSTSGGTAALGCLVKDYFPEPVTVSWNSGALTSGVHTFPAVLQSSGLYSLSSVVTVPSSSLGTKTYICNVNHKPSNTKVDKKVEPKSCDKTHTCPPCPAPEYYWGPSVFLFPPKPKDTLMISRTPEVTCVVVDVSDEEPEVKFNWYVDGVEVHNAKTKPREEQYNATYRVVSVLTVLHQDWLNGKEYKCKVSNKALPAPIEKTISKAKGQPREPQVYTLPPSRKEMTKNQVSLTCLVKGFYPSDIAVEWESNGQPENNYKTTPPVLDSDGSFFLYSKLTVDKSRWQQGNVFSCSVMHEALHNRYTQKSLSLSP chain 2: QDQLVQSGAEVKKPGASVKVSCKASGFNIKDTYIQWVRQAPGQGLEWMGRIDPLRKQTKYREKFEGRVTITADTSTNTAYMELSSLRSEDTAVYYCVRSGREFDYWGQGTLVTVSSASTKGPSVFPLAPSSKSTSGGTAALGCLVKDYFPEPVTVSWNSGALTSGVHTFPAVLQSSGLYSLSSVVTVPSSSLGTQTYICNVDHKPSNTKVDKKVEPKSCDKTHTCPPCPAPELLGGPSVFLFPPKPKDTLMISRTPEVTCVVVDVSHEEPEVQFNWYVDGVEVHNAKTKPREEQYNSTYRVVSVLTVLHQDWLNGKEYKCKVSNDALPMPIEETISKAKGQPREPQVYTLPPSREEMTKNQVSLTCLVKGFYPSDIAVEWESNGQPENNYKTTPPVLDSDGSFFLYSKLTVDKSRWQQGNVFSCSVMHEALHNHYTQESLSLSP chain 3: DIQMTQSPSSLSASVGDRVTITCRASQDIHKYIAWYQQKPGQAPRLLIQYTSTLQPGVPSRFSGSGSGTDYTFTISSLQPEDIATYYCLQYEQLRTFGGGTKVEIKRTVAAPSVFIFPPSDEQLKSGTASVVCLLNNFYPREAKVQWKVDNALQSGNSQESVTEQDSKDSTYSLSSTLTLSKADYEKHKVYACEVTHQGLSSPVTKSFNRGEC
